Reference: publication PMC6783867, “Synthesis and Characterization of Cry2Ab–AVM Bioconjugate: Enhanced Affinity to Binding Proteins and Insecticidal Activity” (Toxins, 2019)

Molecular target: T1, 10th and 11th cadherin repeat domains of the Plutella xylostella cadherin (PxCR10–11), GST-tagged (Plutella xylostella)
T1 construct: Plutella xylostella cadherin, 10th and 11th CR domains, residues 1258–1602 aa; also called truncated recombinant P. xylostella cadherin; source: Escherichia coli expression system, purified (GST-Sefinose prepacked gravity column)
Assay: BLI; Octet Red 96; GST-tagged PxCR10–11 loaded onto anti-GST biosensors; toxin 38.5 to 576.9 nM in solution; 400 s association, 400 s dissociation; 10 mM GSH, 50 mM Tris, pH 8.0; 1:1 binding model
Conditions: both partners purified

B1: Bacillus thuringiensis insecticidal protein (Bt toxin) Cry2Ab30 (natural protein)
chain: MNSVLNSGRTTICDAYNVAAHDPFSFQHKSLDTVQKEWTEWKKNNHSLYLDPIVGTVASFLLKKVGSLVGKRILSELRNLIFPSGSTNLMQDILRETEKFLNQRLNTDTLARVNAELTGLQANVEEFNRQVDNFLNPNRNAVPLSITSSVNTMQQLFLNRLPQFQMQGYQLLLLPLFAQAANLHLSFIRDVILNADEWGISAATLRTYRDYLKNYTRDYSNYCINTYQSAFKGLNTRLHDMLEFRTYMFLNVFEYVSIWSLFKYQSLLVSSGANLYASGSGPQQTQSFTSQDWPFLYSLFQVNSNYVLNGFSGARLSNTFPNIVGLPGSTTTHALLAARVNYSGGISSGDIGASPFNQNFNCSTFLPPLLTPFVRSWLDSGSDREGVATVTNWQTESFETTLGLRSGAFTARGNSNYFPDYFIRNISGVPLVVRNEDLRRPLHYNEIRNIASPSGTPGGARAYMVSVHNRKNNIHAVHENGSMIHLAPNDYTGFTISPIHATQVNNQTRTFISEKFGNQGDSLRFEQNNTTARYTLRGNGNSYNLYLRVSSIGNSTIRVTINGRVYTATNVNTTTNNDGVNDNGARFSDINIGNVVASSNSDVPLDINVTLNSGTQFDLMNIMLVPTNISPLY
Kd: 28.7 nM
